Reference: patent US20220213461A1
Blank lines part the entries; values can stand above or below the molecule they belong to.

Legend:
[1] = target: biotinylated butelase-1 (Clitoria ternatea); assay: affinity binding of biotinylated enzyme to NeutrAvidin agarose beads, pH 6.5, 4 C 3 h; unbound protein measured by A280
[2] = target: biotinylated VyPAL2 (Viola yedoensis); assay: as above
[3] = target: butelase-1 (active form extracted from Clitoria ternatea plant material) (Clitoria ternatea); assay: affinity binding of glycosylated enzyme to ConA agarose beads; unbound protein measured by A280
[4] = target: butelase-1 (active form extracted from Clitoria ternatea plant material) (Clitoria ternatea); assay: affinity binding of glycosylated enzyme to ConA agarose beads, 4 C 3 h; unbound protein in flow-through measured by A280
[5] = target: T1, GN14-SLAN (GISTKSIPPISYRNSLAN)
T1 chain: GISTKSIPPISYRNSLAN

- Yield (%) (observed / expected maximal concentration on beads) [1]: 49%
- Yield (%) (observed / expected maximal concentration on beads) [2]: 45%
Molecule: NeutrAvidin (deglycosylated avidin) on agarose beads (from UniProt P02701 25-152)

- percent of enzyme remaining in the solution (unbound) [3]: 61%
- Yield (%) (observed / expected maximal concentration on beads) [4]: 39%
Molecule: Concanavalin A (ConA) on agarose beads (from UniProt P02866 30-281)

B1: VyPAL2 (recombinant, insect-cell expressed, acid-activated active form) (protein)
chain: STNDDDSIGTRWAVLIAGSKGYHNYRHQADVCHMYQILRKGGVKDENIIVFMYDDIAYNESNPFPGIIINKPGGENVYKGVPKDYTGEDINNVNFLAAILGNKSAIIGGSGKVLDTSPNDHIFIYYADHGAPGKIGMPSKPYLYADDLVDTLKQKAATGTYKSMVFYVEACNAGSMFEGLLPEGTNIYAMAASNSTEGSWITYCPGTPDFPPEFDVCLGDLWSITFLEDCDAHNLRTETVHQQFELVKKKIAYASTVSQYGDIPISKDSLSVYMGTDPANDNRTFVDEN
- catalytic efficiency (kcat/KM) of cyclization, HPLC-based kinetics, pH 6.5, 37 C [5]: 274,325 M^-1s^-1

B2: butelase-1 (active form extracted from Clitoria ternatea plant material) (protein)
chain: VEGTRWAVLVAGSKGYVNYRHQADVCHAYQILKKGGLKDENIIVFMYDDIAYNESNPHPGVIINHPYGSDVYKGVPKDYVGEDINPPNFYAVLLANKSALTGTGSGKVLDSGPNDHVFIYYTDHGGAGVLGMPSKPYIAASDLNDVLKKKHASGTYKSIVFYVESCESGSMFDGLLPEDHNIYVMGASDTGESSWVTYCPLQHPSPPPEYDVCVGDLFSVAWLEDCDVHNLQTETFQQQYEVVKNKTIVALIEDGTHVVQYGDVGLSKQTLFVYMGTDPAN
- catalytic efficiency (kcat/KM) of cyclization, HPLC-based kinetics, pH 6.5, 37 C [5]: 971,936 M^-1s^-1
